Common to all, as to test: SPR
A general note: Surface plasmon resonance follows binding to a sensor surface in real time, without labels.

The target in assay [1] is fHbp V2.21 Val (at V1 Ile196) to Ala (N. meningitidis).
The target of assay [2] is fHbp V1.1 Glu157 to Ala (N. meningitidis).
Assay [3] deals with fHbp V2.21 Phe (at V1 Phe292) to Ala (N. meningitidis).
Assay [4] concerns the target fHbp V2.21 Phe (at V1 Phe194) to Ala (N. meningitidis).
Assay [5] deals with fHbp V2.21 Val (at V1 Leu171) to Ala (N. meningitidis).
For assay [6], the target named is fHbp V2.21 His (at V1 His203) to Ala (N. meningitidis).

We go through two substances from PMC4273445 (eLife, 2014).

Sequence of CFH67, CCP domains 6 and 7 of complement factor H (P08603 321-443): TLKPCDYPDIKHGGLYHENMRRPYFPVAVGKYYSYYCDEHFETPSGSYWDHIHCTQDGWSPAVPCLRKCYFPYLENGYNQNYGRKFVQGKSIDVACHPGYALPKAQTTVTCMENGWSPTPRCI

In the case of “CFH67, CCP domains 6 and 7 of complement factor H (from UniProt P08603 321-443) (domain or fragment)”, the Kd – broadly, the constant that tells how readily two partners part at equilibrium – stood at 40 nM in assay [1] and 20.7 nM in assay [2].
“CFHR3_(12), the first two (N-terminal) CCP domains of complement factor H-related 3 (from UniProt Q02985 19-330) (domain or fragment)”: the Kd in assay [3] is 19.4 nM; in assay [4] it was 1.08 nM; in assay [5], 9.81 nM; in assay [6] it was 3.81 nM.
